Measurements taken from article PMC12470901, “Bioelectrocatalyst for O2 Reduction Based on a Novel Recombinant Two-Domain Laccase from Streptomyces ochraceisleroticus Immobilized on Naphthyl-Modified MWCNTs” (International Journal of Molecular Sciences, 2025).

B1: SoSL (Ac-651) (Streptomyces ochraceiscleroticus) (protein)
chain: ASAAAPAAASQDAVRRAGAGGEVKHLKLYMEQLPDGKLGYGLEKGKATVPGPLIELIEGDTLHIEVTNTLDVAASLHVHGVDYDTASDGTKMNRSHIEPGGTRTYTWRTHRPGRRKDGTWRPGSAGYWHYHDHVVGTEHGTGGIRKGLYGPVVVRREGDILPDPDRQFTIVFNDMTINNLPKGPDFKATIGDRVEIIMITHGEYYHTFHVHGHRWADNRTGLLEGPDDPSRIVDNKITGPADSFGFQFLAGEGVGAGSWMYHCHVQSHSDMGMAGMLLIAKPDGTIPGHDGHH
notes: TAT signal peptide removed (lacks 36 N-terminal residues of 329), pQE-30 His-tag, E. coli M15 [pREP4], Ni-sepharose; 33 kDa computed, ~35 kDa SDS-PAGE; trimeric

Assays:
SoSL (Ac-651) = molecular target: T1, SoSL (Ac-651) (Streptomyces ochraceiscleroticus, UniProt A0ABW1MU60); conditions: pH 3.7; inhibitor
T1 construct: gene ACFP4F_27515
T1 sequence (A0ABW1MU60 37-329): B1 chain

purified protein [1] = substrate: CCn1c(=NN=c2sc3cc(S(=O)(=O)O)ccc3n2CC)sc2cc(S(=O)(=O)O)ccc21; assay: purified protein; format: biochemical, Streptomyces ochraceiscleroticus; conditions: pH 3.5, 30 °C, 50 mM Britton–Robinson buffer, free enzyme (b72 lists the two pH values in reversed order)
purified protein [2] = substrate: COc1cccc(OC)c1O; assay: purified protein; format: biochemical, Streptomyces ochraceiscleroticus; conditions: pH 9.0, 30 °C, 50 mM Britton–Robinson buffer, free enzyme (b72 lists the two pH values in reversed order)

Molecule | 10 mM (SoSL (Ac-651)) [%] | Km (purified protein [1]) [µM] | kcat (purified protein [1]) [s⁻¹] | Km (purified protein [2]) [µM] | kcat (purified protein [2]) [s⁻¹]
F [sodium fluoride] | 67.8 ± 0.6 | – | – | – | –
B1 | – | 50 | 106 | 760 | 0.11
